Three molecules from patent publication US20260258117A1 (ACADEMISCH ZIEKENHUIS LEIDEN H O D N LUMC, published 2026) can be followed below.

The target of one experiment is T1, C4b-binding protein (human, UniProt P04003 49-597; P20851 18-252).
T1 construct: also called C4BP
T1 sequence (looked up) 1: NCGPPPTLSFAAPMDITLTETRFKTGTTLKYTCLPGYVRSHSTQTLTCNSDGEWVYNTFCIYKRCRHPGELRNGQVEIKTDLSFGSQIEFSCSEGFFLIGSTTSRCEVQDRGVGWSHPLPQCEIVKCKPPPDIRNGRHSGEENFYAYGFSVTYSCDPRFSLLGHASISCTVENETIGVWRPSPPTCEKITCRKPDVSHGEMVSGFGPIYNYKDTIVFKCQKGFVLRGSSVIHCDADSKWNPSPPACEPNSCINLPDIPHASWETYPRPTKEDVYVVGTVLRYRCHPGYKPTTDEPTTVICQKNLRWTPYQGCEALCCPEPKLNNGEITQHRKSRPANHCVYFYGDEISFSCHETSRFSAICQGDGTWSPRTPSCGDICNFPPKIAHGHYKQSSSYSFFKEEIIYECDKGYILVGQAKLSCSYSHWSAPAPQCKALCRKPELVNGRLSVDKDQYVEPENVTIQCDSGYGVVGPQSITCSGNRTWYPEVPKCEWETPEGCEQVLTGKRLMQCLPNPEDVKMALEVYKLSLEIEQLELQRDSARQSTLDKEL
T1 sequence (looked up) 2: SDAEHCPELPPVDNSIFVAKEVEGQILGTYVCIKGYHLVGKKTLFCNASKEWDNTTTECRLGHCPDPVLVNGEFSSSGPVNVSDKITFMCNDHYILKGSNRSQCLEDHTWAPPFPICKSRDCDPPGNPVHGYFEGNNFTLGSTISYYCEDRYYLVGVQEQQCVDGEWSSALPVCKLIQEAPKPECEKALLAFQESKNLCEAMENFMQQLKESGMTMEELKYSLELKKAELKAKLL
The experiment can be described thus: bispecific ELISA and complement activation assay on biotinylated BSA-DNP, C4BP detected. For orientation: An ELISA detects its analyte on a solid surface through an enzyme-linked reagent.

The target in experiment [1] is T2, Complement Factor H protein (human, UniProt P08603 19-1231).
T2 construct: Plasma protein, bought purified or present in normal human serum; also called FH; CFH
The experiment can be described thus: bispecific ELISA. The procedure: BsAbs were tested for binding to both antigens in a bispecific ELISA. MaxiSorp plates (Thermo Scientific, Nunc, 430341) were coated with 50 μL/well BSA-DNP (10 μg/mL, Biosearch Technologies, D-5050-10, conjugation ration 13) in coating buffer (0.1 M Na₂CO₃/NaHCO₃PH 9.6) for 1 hour at 37° C. After every incubation, plates were washed three times with PBS/0.05% Tween 20. Plates were blocked with 100 μL/well PBS/1% BSA for 1 hour at 37° C. After washing, plates were incubated with 50 μL/well (bs) Abs diluted in PBS/0.05% Tween 20/1% BSA (PTB buffer) for 1 hour at 37° C. Next, 1 μg/mL FH (CompTech, A137) or C4BP (CompTech, A109) diluted in PTB buffer was added. FH was detected using goat anti-human FH (Quidel, A312) and HRP-labeled rabbit anti-goat Ig (Dako, P0449), and C4BP was detected using rabbit anti-human C4BP (kind gift from Anna M. Blom, Malmö, Sweden) and HRP-labeled goat anti-rabbit Ig (Dako, P0448), all diluted in PTB buffer. Plates were developed by incubating with 50 μL/well ABTS (Merck, A1888-5G) containing 1:2000 diluted H₂O₂ (Merck, 1072090250), and read at 415 nm using a microplate reader (BIO-RAD iMark). It was confirmed by ELISA that the bsAbs can bind to a specific target (e.g., DNP as a model antigen) as well as FH or C4BP, whereas the parental monospecific antibodies cannot (FIG. 1A).

Experiment [2] addresses T2, Complement Factor H protein. Description: flow cytometry, FH detected on Ramos cells treated with bsAb and normal human serum. As to the method: Ramos cells (originally from ATCC) were plated at 100,000 cells/well (V-bottom microplate, Greiner Bio-One, 651101). Cells were incubated with 100 μL/well samples containing 0.3 μg/mL anti-CD20 wild-type with or without 20 μg/mL bsAbs (anti-FH x anti-HLA I and controls) with or without 10 μg/mL FH for 30 minutes. After every incubation, cells were washed with 150 μL/well PBS/1% FCS. Cells were incubated with 100 μL/well 10% NHS in RPMI (for FH detection in the presence of 50 μg/mL eculizumab) for 45 minutes at 37° C. Cell viability was measured by adding 100 μL/well 7-AAD (BD Pharmingen, 559925) 1:200 diluted in PBS/1% FCS. FH was detected using mouse anti-human FH (1:100, OX-23, generated in-house) and goat anti-mouse IgG AF488 (1:50, Life Technologies, A11001). Cells were measured using a FACSCanto flow cytometer (BD Biosciences).
Background: In flow cytometry, cells or beads pass a laser one at a time.

T2 sequence (P08603 19-1231 limits assumed): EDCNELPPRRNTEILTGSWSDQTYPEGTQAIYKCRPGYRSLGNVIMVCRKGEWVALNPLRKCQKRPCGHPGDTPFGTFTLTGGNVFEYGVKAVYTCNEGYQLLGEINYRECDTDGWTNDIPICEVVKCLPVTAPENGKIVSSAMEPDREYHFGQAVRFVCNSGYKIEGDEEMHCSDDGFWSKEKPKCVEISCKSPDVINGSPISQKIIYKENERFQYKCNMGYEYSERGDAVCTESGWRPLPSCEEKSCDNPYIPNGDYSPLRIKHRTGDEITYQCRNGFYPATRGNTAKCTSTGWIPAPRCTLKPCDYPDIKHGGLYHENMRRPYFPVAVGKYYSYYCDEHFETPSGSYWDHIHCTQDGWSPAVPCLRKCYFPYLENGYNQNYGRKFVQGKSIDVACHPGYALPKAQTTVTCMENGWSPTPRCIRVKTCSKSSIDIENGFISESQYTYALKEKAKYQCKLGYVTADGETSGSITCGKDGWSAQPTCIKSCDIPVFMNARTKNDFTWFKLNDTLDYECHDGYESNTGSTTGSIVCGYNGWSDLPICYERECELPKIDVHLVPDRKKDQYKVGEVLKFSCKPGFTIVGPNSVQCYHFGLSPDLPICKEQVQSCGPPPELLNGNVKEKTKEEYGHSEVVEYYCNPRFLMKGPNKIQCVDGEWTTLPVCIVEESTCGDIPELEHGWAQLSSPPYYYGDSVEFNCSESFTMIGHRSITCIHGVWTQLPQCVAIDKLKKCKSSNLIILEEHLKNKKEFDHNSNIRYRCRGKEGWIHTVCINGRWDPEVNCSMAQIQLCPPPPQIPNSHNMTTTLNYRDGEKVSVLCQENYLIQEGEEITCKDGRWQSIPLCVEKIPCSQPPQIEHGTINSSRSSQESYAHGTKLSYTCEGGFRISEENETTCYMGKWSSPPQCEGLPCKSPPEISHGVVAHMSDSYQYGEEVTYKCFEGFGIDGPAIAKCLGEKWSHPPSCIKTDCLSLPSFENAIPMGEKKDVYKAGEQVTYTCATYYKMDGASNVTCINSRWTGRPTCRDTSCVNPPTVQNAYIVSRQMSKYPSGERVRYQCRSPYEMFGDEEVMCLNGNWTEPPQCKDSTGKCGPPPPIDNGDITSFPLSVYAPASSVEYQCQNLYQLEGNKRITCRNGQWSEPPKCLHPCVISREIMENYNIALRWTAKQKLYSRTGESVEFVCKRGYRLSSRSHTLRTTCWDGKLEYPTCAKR

B1: Anti-C4BP F405L LALAPG, Anti-biotin K409R LALAPG (bispecific antibody, human IgG1, kappa, L234A L235A)
heavy 1: EVQLVESGGGLVKPGGSLKLSCAVSGFIFSDYYMYWVRQTPEKRLEWVATISDGGVYTYYPDSMKGRFTISRDNAKNNLYLQMSSLKSEDTAMYYCVRGDYYGNSLDYWGQGTSVTVSSASTKGPSVFPLAPSSKSTSGGTAALGCLVKDYFPEPVTVSWNSGALTSGVHTFPAVLQSSGLYSLSSVVTVPSSSLGTQTYICNVNHKPSNTKVDKRVEPKSCDKTHTCPPCPAPEAAGGPSVFLFPPKPKDTLMISRTPEVTCVVVDVSHEDPEVKFNWYVDGVEVHNAKTKPREEQYNSTYRVVSVLTVLHQDWLNGKEYKCKVSNKALGAPIEKTISKAKGQPREPQVYTLPPSREEMTKNQVSLTCLVKGFYPSDIAVEWESNGQPENNYKTTPPVLDSDGSFLLYSKLTVDKSRWQQGNVFSCSVMHEALHNHYTQKSLSLSPGK
light 1: DVVMTQTPLTLSITIGQPASISCKSSQSLLDGDGKTYLNWLLQRPGQSPKRLIYLVSKLDSGVPDRFTGSGSGTDFTLKISRVEAEDLGVYYCCQGTHFPWTFGRGTKLEIKRTVAAPSVFIFPPSDEQLKSGTASVVCLLNNFYPREAKVQWKVDNALQSGNSQESVTEQDSKDSTYSLSSTLTLSKADYEKHKVYACEVTHQGLSSPVTKSFNRGEC
heavy 2: QVKLQESGPGLVAPSQSLSITCTVSGFSLTAYGVDWVRQPPGKGLEWLGVIWGGGRTNYNSGLMSRLSIRKDNSKSQVFLTMNSLQTDDTAKYYCVKHTNWDGGFAYWGQGTTVTVSSASTKGPSVFPLAPSSKSTSGGTAALGCLVKDYFPEPVTVSWNSGALTSGVHTFPAVLQSSGLYSLSSVVTVPSSSLGTQTYICNVNHKPSNTKVDKRVEPKSCDKTHTCPPCPAPEAAGGPSVFLFPPKPKDTLMISRTPEVTCVVVDVSHEDPEVKFNWYVDGVEVHNAKTKPREEQYNSTYRVVSVLTVLHQDWLNGKEYKCKVSNKALGAPIEKTISKAKGQPREPQVYTLPPSREEMTKNQVSLTCLVKGFYPSDIAVEWESNGQPENNYKTTPPVLDSDGSFFLYSRLTVDKSRWQQGNVFSCSVMHEALHNHYTQKSLSLSPGK
light 2: DVVMTQSPLSLPVSLGDQASISCRSGQGLVYSNGDTYLHWYLQKPGQSPKLLIYKVSNRFSGVPDRFSGSGSGTDFTLKISRVEAEDLGVYFCSQSTHFPFTFGSGTKLEIKRTVAAPSVFIFPPSDEQLKSGTASVVCLLNNFYPREAKVQWKVDNALQSGNSQESVTEQDSKDSTYSLSSTLTLSKADYEKHKVYACEVTHQGLSSPVTKSFNRGEC
notes: Made by controlled Fab-arm exchange; also called anti-C4BP x anti-biotin
For B1, the binding result in the experiment with C4b-binding protein is reported as “binds”.

B2: Anti-FH F405L LALAPG, Anti-DNP K409R LALAPG (bispecific antibody, human IgG1, kappa, L234A L235A)
heavy 1: EVQLQQSGPELVKPGASVKISCKASGYSFTGYFIHWVKQSHVKSLEWFGRINPYNGATDYNQNFKDKAILTIDESSSTAYMEIHSLTSDDSAVYYCARGLFLDYWGQGTTLTVSSASTKGPSVFPLAPSSKSTSGGTAALGCLVKDYFPEPVTVSWNSGALTSGVHTFPAVLQSSGLYSLSSVVTVPSSSLGTQTYICNVNHKPSNTKVDKRVEPKSCDKTHTCPPCPAPEAAGGPSVFLFPPKPKDTLMISRTPEVTCVVVDVSHEDPEVKFNWYVDGVEVHNAKTKPREEQYNSTYRVVSVLTVLHQDWLNGKEYKCKVSNKALGAPIEKTISKAKGQPREPQVYTLPPSREEMTKNQVSLTCLVKGFYPSDIAVEWESNGQPENNYKTTPPVLDSDGSFLLYSKLTVDKSRWQQGNVFSCSVMHEALHNHYTQKSLSLSPGK
light 1: DILMTQSPSSMSVSLGDTVSITCHASQGITSNIGWLQQKPGKSFKGLIYHGTNLEDGVPSRFSGSGSGADYSLTISSLESEDFADYYCVQYAQFPWTFGGGTKLEIKRTVAAPSVFIFPPSDEQLKSGTASVVCLLNNFYPREAKVQWKVDNALQSGNSQESVTEQDSKDSTYSLSSTLTLSKADYEKHKVYACEVTHQGLSSPVTKSFNRGEC
heavy 2: DVRLQESGPGLVKPSQSLSLTCSVTGYSITNSYYWNWIRQFPGNKLEWMVYIGYDGSNNYNPSLKNRISITRDTSKNQFFLKLNSVTTEDTATYYCARATYYGNYRGFAYWGQGTLVTVSAASTKGPSVFPLAPSSKSTSGGTAALGCLVKDYFPEPVTVSWNSGALTSGVHTFPAVLQSSGLYSLSSVVTVPSSSLGTQTYICNVNHKPSNTKVDKRVEPKSCDKTHTCPPCPAPEAAGGPSVFLFPPKPKDTLMISRTPEVTCVVVDVSHEDPEVKFNWYVDGVEVHNAKTKPREEQYNSTYRVVSVLTVLHQDWLNGKEYKCKVSNKALGAPIEKTISKAKGQPREPQVYTLPPSREEMTKNQVSLTCLVKGFYPSDIAVEWESNGQPENNYKTTPPVLDSDGSFFLYSRLTVDKSRWQQGNVFSCSVMHEALHNHYTQKSLSLSPGK
light 2: DIRMTQTTSSLSASLGDRVTISCRASQDISNYLNWYQQKPDGTVKLLIYYTSRLHSGVPSRFSGSGSGTDYSLTISNLEQEDIATYFCQQGNTLPWTFGGGTKLEIKRTVAAPSVFIFPPSDEQLKSGTASVVCLLNNFYPREAKVQWKVDNALQSGNSQESVTEQDSKDSTYSLSSTLTLSKADYEKHKVYACEVTHQGLSSPVTKSFNRGEC
notes: Made by controlled Fab-arm exchange of the two parental IgG1 kappa antibodies; also called anti-FH x anti-DNP
In the case of B2, the binding result in experiment [1] is reported as “binds”.

B3: Anti-FH F405L LALAPG, Anti-HLA I K409R LALAPG (bispecific antibody, human IgG1, kappa, L234A L235A)
heavy 1: EVQLQQSGPELVKPGASVKISCKASGYSFTGYFIHWVKQSHVKSLEWFGRINPYNGATDYNQNFKDKAILTIDESSSTAYMEIHSLTSDDSAVYYCARGLFLDYWGQGTTLTVSSASTKGPSVFPLAPSSKSTSGGTAALGCLVKDYFPEPVTVSWNSGALTSGVHTFPAVLQSSGLYSLSSVVTVPSSSLGTQTYICNVNHKPSNTKVDKRVEPKSCDKTHTCPPCPAPEAAGGPSVFLFPPKPKDTLMISRTPEVTCVVVDVSHEDPEVKFNWYVDGVEVHNAKTKPREEQYNSTYRVVSVLTVLHQDWLNGKEYKCKVSNKALGAPIEKTISKAKGQPREPQVYTLPPSREEMTKNQVSLTCLVKGFYPSDIAVEWESNGQPENNYKTTPPVLDSDGSFLLYSKLTVDKSRWQQGNVFSCSVMHEALHNHYTQKSLSLSPGK
light 1: DILMTQSPSSMSVSLGDTVSITCHASQGITSNIGWLQQKPGKSFKGLIYHGTNLEDGVPSRFSGSGSGADYSLTISSLESEDFADYYCVQYAQFPWTFGGGTKLEIKRTVAAPSVFIFPPSDEQLKSGTASVVCLLNNFYPREAKVQWKVDNALQSGNSQESVTEQDSKDSTYSLSSTLTLSKADYEKHKVYACEVTHQGLSSPVTKSFNRGEC
heavy 2: QVQLKQSGPGLVQPSQSLSLTCTVSGFSLTSYGVHWVRQPPGKGLEWLGVIWSGGSTDYNAAFISRLSIRKDNSKSQVFFKMNSLQADDTAIYYCARTFTTSTSAWFAYWGQGTLVTVSAASTKGPSVFPLAPSSKSTSGGTAALGCLVKDYFPEPVTVSWNSGALTSGVHTFPAVLQSSGLYSLSSVVTVPSSSLGTQTYICNVNHKPSNTKVDKRVEPKSCDKTHTCPPCPAPEAAGGPSVFLFPPKPKDTLMISRTPEVTCVVVDVSHEDPEVKFNWYVDGVEVHNAKTKPREEQYNSTYRVVSVLTVLHQDWLNGKEYKCKVSNKALGAPIEKTISKAKGQPREPQVYTLPPSREEMTKNQVSLTCLVKGFYPSDIAVEWESNGQPENNYKTTPPVLDSDGSFFLYSRLTVDKSRWQQGNVFSCSVMHEALHNHYTQKSLSLSPGK
light 2: SIVMTQTPKFLLVSAGDRVTITCKASQSVSNDVAWYQQKPGQSPKLLIYYASNRYTGVPDRFTGSGYGTDFTFTISTVQAEDLAVYFCQQDYSSPPWTFGGGTKLEIRRTVAAPSVFIFPPSDEQLKSGTASVVCLLNNFYPREAKVQWKVDNALQSGNSQESVTEQDSKDSTYSLSSTLTLSKADYEKHKVYACEVTHQGLSSPVTKSFNRGEC
notes: Made by controlled Fab-arm exchange; also called anti-FH x anti-HLA I
In the case of B3, the binding result in experiment [2] is reported as “binds”.
